# Measurements reported in US20260008817A1, “CYCLIC PEPTIDE OR SALT THEREOF, AND USES THEREOF” (FUJIFILM Corporation, priority 2023, published 2026).
# Positions of bridges follow the written chain, without caps; N, C: chain ends. No end group written: not given here. COCH2 = acetyl group that carries the bridge
# Molecular target: T1, Recombinant Human FGFR1 alpha (IIIc) Fc Chimera Protein (Homo sapiens, UniProt P11362)
# T1 construct: purchased R&D systems 658-FR-050
# Assay: ELISA binding affinity of enzymatically synthesized peptide to FGFR
# Details: ELISA luminescence signal at 10 nmol/L peptide, SEQ ID NO: 239 standardized to 1; enzyme synthesis product
# Experimental: The binding affinity of the peptide to FGFR was evaluated using an ELISA method.
# The peptide used for the evaluation was enzymatically synthesized by the following method.
# First, a fusion peptide (SEQ ID NO: 25) in which a translation enhancing sequence (SEQ ID NO: 22), a peptide, a Myc tag (SEQ ID NO: 23), and a HiBiT tag (SEQ ID NO: 24) were linked in this order was designed. Next, a template DNA sequence (SEQ ID NO: 26) was designed in which a T7 promoter sequence, a Shine-Dalgarno sequence, a sequence necessary for transcription and translation initiation, such as a start codon (ATG), was provided on the 5′ terminal side of the DNA sequence encoding the fused peptide, and a stop codon group was provided on the 3′ terminal side thereof. In a case where the triplet TAG codon is included in the template DNA sequence, the above-described codon is assigned to the codon of chloroacetylated lysine, and thus, the peptide encoded by the above-described DNA sequence is a cyclic peptide in which a thiol group of cysteine and a chloroacetyl group of chloroacetylated lysine spontaneously form a thioether bond.
# The cell-free enzymatic synthesis of the polypeptide was performed in a translation solution containing a template DNA, PUREfrex 2.0 (GeneFrontier, PF201-0.25-5), and Aminoacyl tRNA (1). 1.75 μL ([…]) of the template DNA prepared to 50 ng/μL, 2.5 μL of PUREfrex 2.0 Solution I, 0.25 μL of Solution II, 0.5 μL of Solution III, and a dried product of Aminoacyl tRNA (1) (final concentration: 0.5 ng/μL) were mixed and mixture was subjected to a reaction at 37° C. for 1 hour.
# The concentration of the enzymatically synthesized peptide was measured using the peptide diluted with Can Get Signal Immunoreaction Enhancer Solution I (TOYOBO, NKB-101), Nano-Glo HiBiT Lytic Detection System (Promega, N3040), and a chemical synthetic peptide for a calibration curve having a known concentration (SEQ ID NO: 33) according to the standard protocol of the Nano-Glo HiBiT Lytic Detection System.
# The binding affinity of the enzymatically synthesized peptide to FGFR was measured by evaluating the amount of the peptide bound to FGFR by ELISA.
# First, 5 ng of Recombinant Human FGFR1 alpha (IIIc) Fc Chimera Protein (R&D systems, 658-FR-050) was immobilized in each well of a 96-well plate, and blocked with Pierce Protein-Free (PBS) Blocking Buffer (Thermo, 37572), and a peptide diluted with Can Get Signal Immunoreaction Enhancer Solution I (TOYOBO, NKB-101) was then added and reacted at room temperature for 3 hours. After washing with 0.05% Tween 20-containing phosphate buffered saline (PBS), an anti-Myc antibody (Cell Signaling, 14038S) diluted with Can Get Signal Immunoreaction Enhancer Solution II (TOYOBO, NKB-101) was added and reacted at room temperature for 2 hours. After washing with 0.05% Tween 20-containing PBS, SuperSignal ELISA Femto Substrate (Thermo, 37075) was added, and the luminescence amount was measured. The dose-response relationship was calculated from using the difference between the luminescence amount in the well in which FGFR was immobilized and the luminescence amount in the well in which FGFR was not immobilized, and the concentration of the peptide at the time of reaction, and the binding affinity to FGFR was evaluated according to the following evaluation criteria. The evaluation result preferably satisfies the evaluation criteria A, B, or C.
# In a case where a value of a luminescence signal emitted by the cyclic peptide set forth in SEQ ID NO: 239 at a reaction concentration of 10 nmol/L is standardized to 1, evaluation criteria of the luminescence signal value emitted by the peptide at a reaction concentration of 10 nmol/L is as follows. • A: 0.7 or more • B: 0.5 or more and less than 0.7 • C: 0.1 or more and less than 0.5 • D: less than 0.1.
# T1 sequence (P11362 with tags, fused parts or gaps limits assumed): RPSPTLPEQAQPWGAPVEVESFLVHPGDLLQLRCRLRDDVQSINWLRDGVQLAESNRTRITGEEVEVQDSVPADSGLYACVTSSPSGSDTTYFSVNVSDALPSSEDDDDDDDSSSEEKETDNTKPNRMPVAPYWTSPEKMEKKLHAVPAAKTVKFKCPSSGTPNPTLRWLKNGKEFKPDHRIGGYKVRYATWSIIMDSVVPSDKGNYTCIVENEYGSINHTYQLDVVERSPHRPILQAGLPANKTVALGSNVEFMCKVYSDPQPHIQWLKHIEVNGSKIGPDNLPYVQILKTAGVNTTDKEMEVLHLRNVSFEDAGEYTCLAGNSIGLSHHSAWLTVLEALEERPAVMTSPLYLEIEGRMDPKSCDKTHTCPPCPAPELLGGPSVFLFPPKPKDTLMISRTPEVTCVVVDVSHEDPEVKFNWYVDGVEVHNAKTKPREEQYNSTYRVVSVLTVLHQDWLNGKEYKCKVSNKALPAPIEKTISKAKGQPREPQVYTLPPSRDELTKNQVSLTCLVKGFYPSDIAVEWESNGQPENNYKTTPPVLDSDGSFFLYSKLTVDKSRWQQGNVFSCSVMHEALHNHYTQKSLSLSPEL
row,Evaluation result of binding affinity to FGFR,Substance
1,A (0.7 or more),117 (ICVYTFDARAHSLHAALTKI; Description of Artificial Sequence: Cyclic peptide) [compound 117]
2,C (0.1 or more and less than 0.5),118 (ICVYTFDAHGHSLHAALTKI; Description of Artificial Sequence: Cyclic peptide) [compound 118]
3,C (0.1 or more and less than 0.5),119 (ICVYTFDAHIHSLHAALTKI; Description of Artificial Sequence: Cyclic peptide) [compound 119]
4,C (0.1 or more and less than 0.5),120 (ICVYTFDAHVHSLHAALTKI; Description of Artificial Sequence: Cyclic peptide) [compound 120]
5,C (0.1 or more and less than 0.5),121 (ICVYTFDAHFHSLHAALTKI; Description of Artificial Sequence: Cyclic peptide) [compound 121]
6,C (0.1 or more and less than 0.5),122 (ICVYTFDAHYHSLHAALTKI; Description of Artificial Sequence: Cyclic peptide) [compound 122]
7,C (0.1 or more and less than 0.5),123 (ICVYTFDAHWHSLHAALTKI; Description of Artificial Sequence: Cyclic peptide) [compound 123]
8,B (0.5 or more and less than 0.7),124 (ICVYTFDAHQHSLHAALTKI; Description of Artificial Sequence: Cyclic peptide) [compound 124]
9,C (0.1 or more and less than 0.5),125 (ICVYTFDAHSHSLHAALTKI; Description of Artificial Sequence: Cyclic peptide) [compound 125]
10,C (0.1 or more and less than 0.5),126 (ICVYTFDAHTHSLHAALTKI; Description of Artificial Sequence: Cyclic peptide) [compound 126]
11,C (0.1 or more and less than 0.5),127 (ICVYTFDAHDHSLHAALTKI; Description of Artificial Sequence: Cyclic peptide) [compound 127]
12,C (0.1 or more and less than 0.5),128 (ICVYTFDAHEHSLHAALTKI; Description of Artificial Sequence: Cyclic peptide) [compound 128]
13,C (0.1 or more and less than 0.5),129 (ICVYTFDAHRHSLHAALTKI; Description of Artificial Sequence: Cyclic peptide) [compound 129]
14,C (0.1 or more and less than 0.5),130 (ICVYTFDAHHHSLHAALTKI; Description of Artificial Sequence: Cyclic peptide) [compound 130]
15,A (0.7 or more),131 (ICVYTFDAHAASLHAALTKI; Description of Artificial Sequence: Cyclic peptide) [compound 131]
16,A (0.7 or more),132 (ICVYTFDAHAGSLHAALTKI; Description of Artificial Sequence: Cyclic peptide) [compound 132]
17,A (0.7 or more),133 (ICVYTFDAHAPSLHAALTKI; Description of Artificial Sequence: Cyclic peptide) [compound 133]
18,A (0.7 or more),134 (ICVYTFDAHALSLHAALTKI; Description of Artificial Sequence: Cyclic peptide) [compound 134]
19,B (0.5 or more and less than 0.7),135 (ICVYTFDAHAISLHAALTKI; Description of Artificial Sequence: Cyclic peptide) [compound 135]
20,A (0.7 or more),136 (ICVYTFDAHAVSLHAALTKI; Description of Artificial Sequence: Cyclic peptide) [compound 136]

row,Evaluation result of binding affinity to FGFR,Substance
1,C (0.1 or more and less than 0.5),137 (ICVYTFDAHAFSLHAALTKI; Description of Artificial Sequence: Cyclic peptide) [compound 137]
2,C (0.1 or more and less than 0.5),138 (ICVYTFDAHAYSLHAALTKI; Description of Artificial Sequence: Cyclic peptide) [compound 138]
3,C (0.1 or more and less than 0.5),139 (ICVYTFDAHAWSLHAALTKI; Description of Artificial Sequence: Cyclic peptide) [compound 139]
4,A (0.7 or more),140 (ICVYTFDAHANSLHAALTK(COCH2)I; thioether 2-19 (inferred)) [compound 140]
5,A (0.7 or more),141 (ICVYTFDAHAQSLHAALTK(COCH2)I; thioether 2-19 (inferred)) [compound 141]
6,A (0.7 or more),142 (ICVYTFDAHASSLHAALTK(COCH2)I; thioether 2-19 (inferred)) [compound 142]
7,A (0.7 or more),143 (ICVYTFDAHATSLHAALTK(COCH2)I; thioether 2-19 (inferred)) [compound 143]
8,A (0.7 or more),144 (ICVYTFDAHADSLHAALTK(COCH2)I; thioether 2-19 (inferred)) [compound 144]
9,A (0.7 or more),145 (ICVYTFDAHAESLHAALTK(COCH2)I; thioether 2-19 (inferred)) [compound 145]
10,A (0.7 or more),146 (ICVYTFDAHARSLHAALTK(COCH2)I; thioether 2-19 (inferred)) [compound 146]
11,B (0.5 or more and less than 0.7),147 (ICVYTFDAHAHALHAALTK(COCH2)I; thioether 2-19 (inferred)) [compound 147]
12,C (0.1 or more and less than 0.5),148 (ICVYTFDAHAHGLHAALTK(COCH2)I; thioether 2-19 (inferred)) [compound 148]
13,C (0.1 or more and less than 0.5),149 (ICVYTFDAHAHLLHAALTK(COCH2)I; thioether 2-19 (inferred)) [compound 149]
14,C (0.1 or more and less than 0.5),150 (ICVYTFDAHAHILHAALTK(COCH2)I; thioether 2-19 (inferred)) [compound 150]
15,C (0.1 or more and less than 0.5),151 (ICVYTFDAHAHVLHAALTK(COCH2)I; thioether 2-19 (inferred)) [compound 151]
16,C (0.1 or more and less than 0.5),152 (ICVYTFDAHAHFLHAALTK(COCH2)I; thioether 2-19 (inferred)) [compound 152]
17,C (0.1 or more and less than 0.5),153 (ICVYTFDAHAHYLHAALTK(COCH2)I; thioether 2-19 (inferred)) [compound 153]
18,C (0.1 or more and less than 0.5),154 (ICVYTFDAHAHWLHAALTK(COCH2)I; thioether 2-19 (inferred)) [compound 154]
19,A (0.7 or more),155 (ICVYTFDAHAHNLHAALTK(COCH2)I; thioether 2-19 (inferred)) [compound 155]
